Laboratory results taken from patent publication US20220402990.

Experiments:
[1] = target: Activatable cytokine construct IFN-α2b-1204DNIdl-hIgG4
[2] = target: IFN-α2b-1204DNIdl-hIgG4 with five amino acid residues added to the linker
[3] = target: Activatable cytokine construct IFN-α-2b 1490DNI-hIgG4

B1: recombinant human matriptase (MT-SP1) (protein)
chain: VVGGTDADEGEWPWQVSLHALGQGHICGASLISPNWLVSAAHCYIDDRGFRYSDPTQWTAFLGLHDQSQRSAPGVQERRLKRIISHPFFNDFTFDYDIALLELEKPAEYSSMVRPICLPDASHVFPAGKAIWVTGWGHTQYGGTGALILQKGEIRVINQTTCENLLPQQITPRMMCVGFLSGGVDSCQGDSGGPLSSVEADGRIFQAGVVSWGDGCAQRNKPGVYTRLPLFRDWIKENTGV
With B1 the “protease cleavage, gel electrophoresis” value [1] was “The results suggest that the proteases were effective at cleaving the cleavable moieties in the activatable cytokine constructs”, the “protease cleavage, gel electrophoresis” value [2] was “The results suggest that the proteases were effective at cleaving the cleavable moieties in the activatable cytokine constructs” and the “protease cleavage, gel electrophoresis” value [3] was “The results suggest that the proteases were effective at cleaving the cleavable moieties in the activatable cytokine constructs”.
